Biological target: T1, human α4β7 integrin (human, UniProt P13612 34-1032; P26010 20-798)
T1 construct: whole, on cells; also called α4β7 integrin on HuT 78 cells; α4β7 on RPMI 8866 cells
Experiment: inhibition of adhesion of α4β7+ RPMI 8866 cells to plate-bound human MAdCAM-1-Ig chimera; antibody varied from 15.0 to 0.00075 µg/ml
Procedure: Wells were then washed once with wash buffer (50 mM Tris HCl, 0.14 M NaCl, 1 mM MnC12, pH 7.2) using a microplate autowasher (Bio-Tek Instruments, Winooski, Vt.) and blocked for 1.5 hrs at 37° C. with 100 μL of 10% FBS diluted in PBS.
BCECF (2′,7′-bis-(2-carboxyethyl)-5-(and 6)-carboxy fluorescein, acetoxymethyl ester; Molecular Probes, Inc., Eugene, Oreg.) was reconstituted to 50 μg/ml in DMSO and added to the cell suspension to a final dilution of 1:500. After incubating for 30 minutes at 37° C., cells were then washed in assay buffer (HBSS with 2% Fetal Bovine Serum, 25 mM HEPES, penicillin/streptomycin, pH 7.2), and 50,000 cells were added to each well of a V-bottom 96-well plate. […] The plate coated with MAdCAM-1 chimera was washed to remove blocking buffer, and these fluorescently labeled RPMI 8866 cells were then transferred to each well. The plate was placed on a platform shaker (New Brunswick Scientific Co., Inc., Edison, N.J.) at 40 RPM for 30 minutes at room temperature wrapped in aluminum foil. Unbound cells were removed by a single wash step and fluorescence subsequently measured (excite at 485 nm, read at 535 nm) with a Fluorescence Concentrator Analyzer (IDEXX Laboratories, Inc., Westbrook, Me.) before and after washing.

IC50: 1.8 ng/mL
B1: murine Act-1 monoclonal antibody (antibody, mouse IgG1, V domains shown)
VH: QVQLQQPGAELVKPGTSVKLSCKGYGYTFTSYWMHWVKQRPGQGLEWIGEIDPSESNTNYNQKFKGKATLTVDISSSTAYMQLSSLTSEDSAVYYCARGGYDGWDYAIDYWGQGTSVTVSS
VL: DVVVTQTPLSLPVSFGDQVSISCRSSQSLAKSYGNTYLSWYLHKPGQSPQLLIYGISNRFSGVPDRFSGSGSGTDFTLKISTIKPEDLGMYYCLQGTHQPYTFGGGTKLEIK
notes: Mouse IgG1/kappa from the Act-1 hybridoma (ATCC PTA-3663); also called mAb Act-1; mouse Act-1 antibody
